This is an account of results in patent publication US20240002497A1 (Merck Sharp & Dohme, published 2024).

One test deals with T1, huNav1.7α (human, UniProt Q15858 1-1988).
T1 construct: HEK cells expressing the α subunit alone; also called HEKa; HEK huNav1.7α
Put plainly: binding FACS, HEKa cells. The method in brief: (§1)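 Cells at 1×10^5 per well incubated 30 min at 4 °C with purified FLAG3-tagged ISVD in FACS buffer (PBS, 10% FBS, NaN₃); bound ISVD detected via murine anti-Flag by flow cytometry, dead cells excluded with 1 μg/mL propidium iodide.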

Test [1] concerns the target T2, huNav1.7α+β1-β2-β3 (human, UniProt Q15858 1-1988; Q07699 19-218; O60939 30-215; Q9NY72 23-215).
T2 construct: 5N11S variant; also called huNav1.7-beta1-beta2-beta3; huNav1.7α+Navβ1-Navβ2-Navβ3
Put plainly: binding FACS, CHO FlpIn cells. In a few lines:
(§2)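 Purified FLAG3-tagged ISVDs incubated with cells (1×10^5 cells/well) in PBS/10% FBS/NaN₃ for 30 minutes at 4° C. Bound ISVD detected via murine anti-Flag by flow cytometry; dead cells excluded with 1 μg/mL propidium iodide. Crude periplasmic extracts were also screened for huNav1.7α binding without huNav1.5a binding.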

The target in the next test is T3, rhNav1.7α+β1-β2-β3 (rhesus monkey α subunit with human β …).
T3 construct: P2A cleaves it into α, β1, β2, β3; also called rhNav1.7-beta1-beta2-beta3
As to the kind of experiment: binding FACS, CHO FlpIn cells. The method in brief: as §2

The target in test [2] is T2, huNav1.7α+β1-β2-β3. As to the kind of experiment: binding FACS, HEK FlpIn cells.
The target in test [3] is T4, huNav1.7α+β1 (human, UniProt Q15858 1-1988; Q07699 19-218).
T4 construct: also called huNav1.7-beta1; HEKa/β1
As to the kind of experiment: binding FACS, HEKa/β1 cells. The method in brief: as §1

For test [4], the target named is T2, huNav1.7α+β1-β2-β3. As to the kind of experiment: binding FACS, HEK FlpIn cells. In a few lines: as §2
The source holds these as a separate data set.

In test [5] the target is T5, huNav157chimera14+β1-β2-β3 (human, UniProt Q07699 19-218; O60939 30-215; Q9NY72 23-215).
T5 construct: HEK FlpIn line; also called huNav157 chimera 14-beta1-beta2-beta3; Nav157ch14-β1-β2-β3
As to the kind of experiment: binding FACS, HEK FlpIn cells. In a few lines:
as §2

The next test has as its target T6, huNav1.5α+β1-β2-β3 (human, UniProt Q14524 1-2016; A5A6L6 19-218; O60939 30-215; Q2KI11 23-215).
T6 construct: in the cell P2A cleaves it into α, β1, β2, β3; also called huNav1.5-beta1-beta2-beta3
As to the kind of experiment: binding FACS, HEK FlpIn cells. In a few lines:
as §2

The target in a further test is T7, huNav1.4α (human, UniProt P35499 1-1836).
T7 construct: also called huNav1.4 (alpha subunit)
As to the kind of experiment: binding FACS on stable cell lines.

For the next test, the target named is huNav1.1α (human, UniProt P35498 1-2009). As to the kind of experiment: binding FACS on stable cell lines.
The target in the next test is T8, huNav1.6α (human, UniProt Q9UQD0 1-1980).
T8 construct: also called huNav1.6 (alpha subunit)
As to the kind of experiment: binding FACS on stable cell lines.

The next test addresses T9, huNav1.2α (human, UniProt Q99250 1-2005).
T9 construct: also called huNav1.2 (alpha subunit)
As to the kind of experiment: binding FACS on stable cell lines.

For another test, the target named is T10, huNav1.3α (human, UniProt Q9NY46 1-2000).
T10 construct: also called huNav1.3 (alpha subunit)
As to the kind of experiment: binding FACS on stable cell lines.

The target in a further test is T11, huNav1.8α (human, UniProt Q9Y5Y9 1-1956).
T11 construct: also called huNav1.8 (alpha subunit)
Put plainly: binding FACS on stable cell lines.

Test [6] concerns the target T12, huNav1.7(N146S, V194I, F276V, R277Q, E281V, V331M, E504D, D507E, S508N, N533S)-β1-β2-β3 (human, UniProt Q15858 1-1988; Q07699 19-218; O60939 30-215; Q9NY72 23-215).
T12 construct: Transiently on HEK293T cells; The text prints V1941 for V194I; also called chimeric variant of huNav1.7α with all DI huNav1.7α-rhNav1.7α polymorphisms
Put plainly: FACS on transiently transfected HEK293T cells. The method, then: (§3) Binding of the ISVDs to cell-expressed Nav1.7α was detected via murine anti-Flag (Sigma, catalog #F1804). Briefly, cells were resuspended in FACS buffer (PBS, 10% FBS, NaN₃) and transferred to a 96-well V-bottom plate at 1×10^5 cells/well. Purified FLAG3-tagged ISVD was diluted in FACS buffer and added to the cells for 30 minutes at 4° C. […] Prior to the read-out, the samples were resuspended in 1 μg/mL propidium iodide (Sigma, catalog #P4170) to exclude dead cells. Between each step, the cells were centrifuged for 5 minutes at 200 grams and washed with 100 μL/well FACS buffer.
FACS binding studies (as described above) were performed on HEK293T cells transiently transfected with a chimeric variant of huNav1.7α in which all the huNav1.7α-rhNav1.7α polymorphisms of DI are present (N146S, V1941, F276V, R277Q, E281V, V331M, E504D, D507E, S508N, N533S). Replacing the huNav1.7α DI sequence for that of rhNav1.7α is sufficient to abolish the binding of F0103262CO2, F0103265B04, F0103262B06, and F0103265A11 to huNav1.7α, recapitulating the absence of binding on rhNav1.7α (see FIGS. 21A-21B).

In test [7] the target is T4, huNav1.7α+β1. Put plainly: binding FACS, HEK293 cells. In a few lines:
as §2

In another test the target is T13, huNav157 chimera 14 (human).
T13 construct: Chimera without β subunits; also called Nav157ch14
As to the kind of experiment: binding FACS, HEK FlpIn cells.

For test [8], the target named is T14, huNav157 chimera 14 + β1-β2-β3 (human).
T14 construct: Chimera of huNav1.7α (extracellular loops and transmembrane helices) and huNav1.5α (intracellular loops); also called Nav157ch14-β1-β2-β3; huNav157 chimera 14-beta1-beta2-beta3
Put plainly: binding FACS, HEK FlpIn cells.

Test [9] deals with T15, huNav1.7α (human Nav1.7 alpha subunit, expressed without β subunits) (human, UniProt Q15858 1-1988).
T15 construct: also called HEK293 human Nav1.7α; HEKa Nav1.7α
Put plainly: binding FACS, huNav1.7α without β; minus = weaker than reference.

Test [10] has as its target T16, huNav1.7α + β1 (human Nav1.7α co-expressed with Navβ1) (human, UniProt Q15858 1-1988; Q07699 19-218).
T16 construct: also called HEK293 human Nav1.7α + β1; HEKa/β1 Nav1.7α
Put plainly: binding FACS, HEKa/β1 cells.

Test [11] has as its target T15, huNav1.7α (human Nav1.7 alpha subunit, …). As to the kind of experiment: binding FACS, HEKa cells.
For test [12], the target named is T5, huNav157chimera14+β1-β2-β3. Put plainly: binding FACS with purified FLAG3-HIS6 tagged ISVDs. The method, then: as §3
Crude periplasmic extracts containing ISVDs from phage display selections (as described above) were screened in FACS for binding to huNav1.7α but not to huNav1.5a. […] As used in Table 8, the drawings, and throughout the description, Navβ1, Navβ2, and Navβ3 are human homologs unless specifically identified otherwise.

A further test concerns the target rhNav1.7α (rhesus monkey, UniProt Q15858 1-1988 (human entry)). Put plainly: cell-based or functional assay.

T10 sequence (Q9NY46 whole entry): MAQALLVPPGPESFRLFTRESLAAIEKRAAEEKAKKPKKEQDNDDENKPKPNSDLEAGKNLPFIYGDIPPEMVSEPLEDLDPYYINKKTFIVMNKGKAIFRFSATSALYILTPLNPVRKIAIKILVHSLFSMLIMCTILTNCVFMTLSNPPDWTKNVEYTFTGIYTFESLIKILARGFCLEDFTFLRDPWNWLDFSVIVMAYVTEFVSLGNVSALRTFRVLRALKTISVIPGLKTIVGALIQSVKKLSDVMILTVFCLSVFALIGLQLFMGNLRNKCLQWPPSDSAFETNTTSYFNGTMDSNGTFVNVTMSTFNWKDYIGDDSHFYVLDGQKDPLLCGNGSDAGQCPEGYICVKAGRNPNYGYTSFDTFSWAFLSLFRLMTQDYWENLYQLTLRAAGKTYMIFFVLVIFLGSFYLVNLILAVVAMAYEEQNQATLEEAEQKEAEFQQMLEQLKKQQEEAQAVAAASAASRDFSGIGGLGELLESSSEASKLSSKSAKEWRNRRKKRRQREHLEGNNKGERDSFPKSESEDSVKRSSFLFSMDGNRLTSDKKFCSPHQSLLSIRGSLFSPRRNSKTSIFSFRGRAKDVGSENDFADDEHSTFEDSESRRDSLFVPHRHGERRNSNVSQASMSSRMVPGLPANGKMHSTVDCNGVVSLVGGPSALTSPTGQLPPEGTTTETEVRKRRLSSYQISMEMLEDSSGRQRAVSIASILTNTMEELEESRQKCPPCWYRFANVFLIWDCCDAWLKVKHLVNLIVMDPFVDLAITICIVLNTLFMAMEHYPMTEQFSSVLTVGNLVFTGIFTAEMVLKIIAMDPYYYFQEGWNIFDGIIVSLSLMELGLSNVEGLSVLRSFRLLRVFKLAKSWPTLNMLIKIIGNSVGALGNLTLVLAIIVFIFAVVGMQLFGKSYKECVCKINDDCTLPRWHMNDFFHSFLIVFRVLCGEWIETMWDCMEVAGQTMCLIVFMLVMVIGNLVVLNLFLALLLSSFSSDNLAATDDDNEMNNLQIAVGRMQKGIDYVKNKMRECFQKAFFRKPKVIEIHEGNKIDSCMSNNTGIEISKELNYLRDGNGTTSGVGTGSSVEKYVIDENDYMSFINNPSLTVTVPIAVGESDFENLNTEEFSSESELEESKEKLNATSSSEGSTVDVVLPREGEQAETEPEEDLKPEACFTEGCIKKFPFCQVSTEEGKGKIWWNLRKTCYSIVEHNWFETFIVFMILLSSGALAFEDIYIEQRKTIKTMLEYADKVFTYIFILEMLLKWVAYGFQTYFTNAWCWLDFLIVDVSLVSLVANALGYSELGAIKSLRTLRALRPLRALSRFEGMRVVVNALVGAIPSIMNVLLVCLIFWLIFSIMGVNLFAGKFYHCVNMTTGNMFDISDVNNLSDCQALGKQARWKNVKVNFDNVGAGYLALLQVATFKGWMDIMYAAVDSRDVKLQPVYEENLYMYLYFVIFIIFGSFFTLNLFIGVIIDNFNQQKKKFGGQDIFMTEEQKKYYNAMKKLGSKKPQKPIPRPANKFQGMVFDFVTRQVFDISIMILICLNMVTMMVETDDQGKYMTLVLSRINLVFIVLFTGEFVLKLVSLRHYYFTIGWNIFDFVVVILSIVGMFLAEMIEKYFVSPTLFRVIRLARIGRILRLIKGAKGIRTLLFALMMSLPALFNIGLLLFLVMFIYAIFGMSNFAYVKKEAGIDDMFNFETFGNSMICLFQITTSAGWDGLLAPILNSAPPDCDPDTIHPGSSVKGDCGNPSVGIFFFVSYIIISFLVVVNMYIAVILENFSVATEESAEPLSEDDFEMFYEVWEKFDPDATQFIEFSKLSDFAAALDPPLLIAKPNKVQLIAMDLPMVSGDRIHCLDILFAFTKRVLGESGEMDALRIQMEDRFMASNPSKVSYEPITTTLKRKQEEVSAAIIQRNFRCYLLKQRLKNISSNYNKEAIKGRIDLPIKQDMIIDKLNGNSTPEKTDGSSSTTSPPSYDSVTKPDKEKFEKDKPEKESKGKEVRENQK
T7 sequence (P35499 whole entry): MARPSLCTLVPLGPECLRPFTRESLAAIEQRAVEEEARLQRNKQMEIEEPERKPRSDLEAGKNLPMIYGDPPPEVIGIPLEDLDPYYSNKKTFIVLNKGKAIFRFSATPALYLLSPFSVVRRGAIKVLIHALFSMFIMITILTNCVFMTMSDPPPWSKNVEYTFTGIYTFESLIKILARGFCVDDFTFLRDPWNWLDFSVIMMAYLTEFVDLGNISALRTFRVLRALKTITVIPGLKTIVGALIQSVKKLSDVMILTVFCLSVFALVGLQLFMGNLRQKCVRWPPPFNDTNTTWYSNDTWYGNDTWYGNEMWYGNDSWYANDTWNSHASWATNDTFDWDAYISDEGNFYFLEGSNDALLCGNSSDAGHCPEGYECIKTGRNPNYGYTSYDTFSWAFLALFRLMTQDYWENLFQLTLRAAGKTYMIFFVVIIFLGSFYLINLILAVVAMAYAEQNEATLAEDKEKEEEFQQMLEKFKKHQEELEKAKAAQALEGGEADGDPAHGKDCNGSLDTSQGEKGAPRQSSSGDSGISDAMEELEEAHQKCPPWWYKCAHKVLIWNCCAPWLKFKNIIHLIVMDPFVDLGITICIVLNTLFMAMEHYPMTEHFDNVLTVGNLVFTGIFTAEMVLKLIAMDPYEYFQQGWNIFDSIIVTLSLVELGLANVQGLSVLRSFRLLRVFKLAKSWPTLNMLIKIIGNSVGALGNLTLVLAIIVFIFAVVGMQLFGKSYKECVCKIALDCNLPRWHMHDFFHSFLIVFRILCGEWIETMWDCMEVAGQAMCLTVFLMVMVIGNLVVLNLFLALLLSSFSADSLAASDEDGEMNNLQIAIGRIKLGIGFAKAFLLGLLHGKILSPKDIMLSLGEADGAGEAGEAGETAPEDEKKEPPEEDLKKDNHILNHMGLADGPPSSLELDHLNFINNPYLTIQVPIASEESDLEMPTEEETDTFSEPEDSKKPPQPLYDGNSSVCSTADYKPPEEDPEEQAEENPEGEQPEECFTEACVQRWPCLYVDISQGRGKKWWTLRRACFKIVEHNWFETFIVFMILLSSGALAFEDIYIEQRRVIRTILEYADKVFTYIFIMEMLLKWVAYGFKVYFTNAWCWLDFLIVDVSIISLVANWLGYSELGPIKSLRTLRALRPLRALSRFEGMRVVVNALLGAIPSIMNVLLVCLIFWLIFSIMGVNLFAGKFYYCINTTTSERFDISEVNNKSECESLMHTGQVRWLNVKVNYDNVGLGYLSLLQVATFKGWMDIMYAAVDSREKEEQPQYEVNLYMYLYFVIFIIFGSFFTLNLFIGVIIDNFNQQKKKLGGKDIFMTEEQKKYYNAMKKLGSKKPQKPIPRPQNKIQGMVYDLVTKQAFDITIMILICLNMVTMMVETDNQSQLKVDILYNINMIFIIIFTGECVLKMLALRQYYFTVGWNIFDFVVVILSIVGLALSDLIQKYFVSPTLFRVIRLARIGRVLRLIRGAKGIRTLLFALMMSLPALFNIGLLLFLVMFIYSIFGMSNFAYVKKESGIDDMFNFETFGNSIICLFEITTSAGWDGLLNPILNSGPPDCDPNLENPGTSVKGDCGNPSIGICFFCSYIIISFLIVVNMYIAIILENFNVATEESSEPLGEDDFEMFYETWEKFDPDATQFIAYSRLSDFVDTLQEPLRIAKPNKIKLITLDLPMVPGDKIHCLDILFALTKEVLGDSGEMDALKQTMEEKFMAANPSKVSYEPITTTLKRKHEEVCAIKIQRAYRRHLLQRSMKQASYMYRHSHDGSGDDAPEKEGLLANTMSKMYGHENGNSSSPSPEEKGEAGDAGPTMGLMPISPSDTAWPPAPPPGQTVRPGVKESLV

B1: F0103265A11 (parental)-FLAG-HIS6 (VHH)
VHH: EVQLVESGGGLVQPGGSLRLSCAASGMLFNANTQGWYRQAPGKQRELVAFIFSGGYTNYVDSVKGRFTISRDNAKRTMYLQMNSLKPEDSAIYYCSLSRYLGQGTLVTVSS
notes: also called F01033265A11
For B1, the binding result with huNav1.7α, with rhNav1.7α+β1-β2-β3, with huNav1.5α+β1-β2-β3, with huNav1.4α, with huNav1.1α and with huNav1.6α was “no binding” each time. In addition, the binding result with huNav1.2α is listed as “no binding”; in the test with huNav1.3α, “no binding”; with huNav1.8α, “no binding”; in test [6], “no binding (tested: 1 µM)”. Moreover, the EC50 – broadly, the concentration giving half of the maximal effect – with huNav1.7α+β1-β2-β3 [1] is 66 nM; in the test with huNav1.7α+β1-β2-β3 [2] it was 77 nM; with huNav1.7α+β1 [3] it was 11 nM; with huNav1.7α+β1-β2-β3 [4] it was 37 nM; in test [5], 34 nM; with huNav1.7α+β1 [7] it was 8.4 nM. In addition, the “Bmax relative to '535” value with huNav1.7α+β1 [3] amounted to 34%.

B2: F010301647 (VHH)
VHH: EVQLVESGGGVVQPGGSLRLSCDASGRILRIGYMRWHRQGAGKQRELVARITDDSATDYADSVKGRFTISRDNAKNTVYLQMNSLRPEDTALYYCEALVTASVRGGSIHSGTYWGQGTLVTVSS
notes: also called F0103387G05(L11V, A14P, F47L, N82bS, N83R, V89L, R105Q); F47L
Regarding B2, the Bmax is 80% with huNav157 chimera 14 and 75% in test [11]. Further, the EC50 with huNav157 chimera 14 was 12 nM; in test [8] it was 4.7 nM; in [10], 4 nM; in test [11], 8 nM. For the same molecule, the “EC50 fold change compared to reference” value in [9] was -2 fold.

B3: F0103262B06 (parental)-FLAG-HIS6 (VHH)
VHH: EVQLVESGGGLVQPGGSLRLSCAGSTRTFSTYAMGWFRQAPGREREFVAHINFSGSSTRYADSVKGRFTISRDNAKNMGYLQMNSLKPEDTAVYYCAARWVAGPPRYDYEYWGQGTLVTVSS
With B3, the EC50 in the test with huNav1.7α+β1-β2-β3 [1] was 19 nM; in the test with huNav1.7α+β1-β2-β3 [4], 25 nM; in [5] it was 16 nM; with huNav1.7α+β1 [7], 20 nM. Also, the binding result with rhNav1.7α+β1-β2-β3, with huNav1.5α+β1-β2-β3, in the test with huNav1.4α, in the test with huNav1.1α, with huNav1.6α and with huNav1.2α was “no binding” each time. Besides, the values for the binding result (with huNav1.3α; with huNav1.8α; in test [6]) were “no binding”, “no binding” and “no binding (tested: 1 µM)”, respectively.

B4: F0103362B08 (parental)-FLAG-HIS6 (VHH)
VHH: EVQLVESGGGLVQAGGSLRLSCAASVRPFSTSAMGWFRQAPEKEREAVAGILWNGIVTYYADSVKGRFTISRDNAKNEVYLQMNKLKPEDTAVYYCALDRDYGGRSFSAYEYEYWGQGTLVTVSS
In the case of B4, the binding result in test [12] was “binds”; with rhNav1.7α+β1-β2-β3 it was “no binding”; with huNav1.5α+β1-β2-β3, “no binding”; with huNav1.4α it was “no binding”; in the test with huNav1.1α, “no binding”; in the test with huNav1.6α it was “no binding”. For the same molecule, the binding result in the test with huNav1.2α, with huNav1.3α and in the test with huNav1.8α was “no binding” each time. In addition, the values for the half-maximal effective concentration (EC50) with huNav1.7α+β1-β2-β3 [1], with huNav1.7α+β1-β2-β3 [4] and with huNav1.7α+β1 [7] were 110 nM, 42 nM and 59 nM, respectively.

B5: F0103387G04 (parental)-FLAG-HIS6 (VHH)
VHH: EVQLVESGGGLAQPGGSLRLSCAASGPVFNINKMAWYRRAPGKQRELVASVTPTGSISYTDSVKGRFTISRDGSKRWSLQMNSLTPEDTAVYYCNALLQPDSYSNTRTYWGQGTLVTVSS
notes: also called F01033387G04
In the case of B5, the binding result was “binds” in test [12], “no binding” in the test with huNav1.5α+β1-β2-β3 and “no binding” in the test with huNav1.8α. Also, the “2-pulse IC50 [M], P1” value in the test with rhNav1.7α came to 7e-06 M. For the same molecule, the “2-pulse IC50 [M], P2” value with rhNav1.7α was found to be 3e-06 M.
